Laboratory results published in IntAct's records for PubMed 26751641.

B1: Chromodomain-helicase-DNA-binding protein 1 (Homo sapiens), O14646 (parent)
chain: MNGHSDEESVRNSSGESSQSDDDSGSASGSGSGSSSGSSSDGSSSQSGSSDSDSGSESGSQSESESDTSRENKVQAKPPKVDGAEFWKSSPSILAVQRSAILKKQQQQQQQQQHQASSNSGSEEDSSSSEDSDDSSSEVKRKKHKDEDWQMSGSGSPSQSGSDSESEEEREKSSCDETESDYEPKNKVKSRKPQNRSKSKNGKKILGQKKRQIDSSEEDDDEEDYDNDKRSSRRQATVNVSYKEDEEMKTDSDDLLEVCGEDVPQPEEEEFETIERFMDCRIGRKGATGATTTIYAVEADGDPNAGFEKNKEPGEIQYLIKWKGWSHIHNTWETEETLKQQNVRGMKKLDNYKKKDQETKRWLKNASPEDVEYYNCQQELTDDLHKQYQIVERIIAHSNQKSAAGYPDYYCKWQGLPYSECSWEDGALISKKFQACIDEYFSRNQSKTTPFKDCKVLKQRPRFVALKKQPSYIGGHEGLELRDYQLNGLNWLAHSWCKGNSCILADEMGLGKTIQTISFLNYLFHEHQLYGPFLLVVPLSTLTSWQREIQTWASQMNAVVYLGDINSRNMIRTHEWTHHQTKRLKFNILLTTYEILLKDKAFLGGLNWAFIGVDEAHRLKNDDSLLYKTLIDFKSNHRLLITGTPLQNSLKELWSLLHFIMPEKFSSWEDFEEEHGKGREYGYASLHKELEPFLLRRVKKDVEKSLPAKVEQILRMEMSALQKQYYKWILTRNYKALSKGSKGSTSGFLNIMMELKKCCNHCYLIKPPDNNEFYNKQEALQHLIRSSGKLILLDKLLIRLRERGNRVLIFSQMVRMLDILAEYLKYRQFPFQRLDGSIKGELRKQALDHFNAEGSEDFCFLLSTRAGGLGINLASADTVVIFDSDWNPQNDLQAQARAHRIGQKKQVNIYRLVTKGSVEEDILERAKKKMVLDHLVIQRMDTTGKTVLHTGSAPSSSTPFNKEELSAILKFGAEELFKEPEGEEQEPQEMDIDEILKRAETHENEPGPLTVGDELLSQFKVANFSNMDEDDIELEPERNSKNWEEIIPEDQRRRLEEEERQKELEEIYMLPRMRNCAKQISFNGSEGRRSRSRRYSGSDSDSISEGKRPKKRGRPRTIPRENIKGFSDAEIRRFIKSYKKFGGPLERLDAIARDAELVDKSETDLRRLGELVHNGCIKALKDSSSGTERTGGRLGKVKGPTFRISGVQVNAKLVISHEEELIPLHKSIPSDPEERKQYTIPCHTKAAHFDIDWGKEDDSNLLIGIYEYGYGSWEMIKMDPDLSLTHKILPDDPDKKPQAKQLQTRADYLIKLLSRDLAKKEALSGAGSSKRRKARAKKNKAMKSIKVKEEIKSDSSPLPSEKSDEDDDKLSESKSDGRERSKKSSVSDAPVHITASGEPVPISEESEELDQKTFSICKERMRPVKAALKQLDRPEKGLSEREQLEHTRQCLIKIGDHITECLKEYTNPEQIKQWRKNLWIFVSKFTEFDARKLHKLYKHAIKKRQESQQNSDQNSNLNPHVIRNPDVERLKENTNHDDSSRDSYSSDRHLTQYHDHHKDRHQGDSYKKSDSRKRPYSSFSNGKDHRDWDHYKQDSRYYSDREKHRKLDDHRSRDHRSNLEGSLKDRSHSDHRSHSDHRLHSDHRSSSEYTHHKSSRDYRYHSDWQMDHRASSSGPRSPLDQRSPYGSRSPFEHSVEHKSTPEHTWSSRKT

Variants of: B1
Conditions: with KDM1A

Variant	effect of a mutation on the interaction
D425A	disrupting interaction strength
